According to the supplement of paper PMC9112550, “Optimization of the antimicrobial peptide Bac7 by deep mutational scanning” (BMC Biology, 2022):

tested on: Escherichia coli TOP10; assay: shrunken log2 fold change of peptide-encoding DNA abundance (4.5 h post-induction vs induction); higher = less antimicrobial activity (less host growth inhibition); conditions: time post-induction: 4.5 h; library: site-saturation at positions 5, 18, 19, 20
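Note: peptides expressed intracellularly from a pBAD plasmid library in pooled LB shake-flask culture, induced with 0.3% L-arabinose, DNA abundance read by NGS, three biological replicates, DESeq2 with apeglm shrinkage.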

Row | Sequence | shrunken log2 fold change
1 | RRIRKRPPRLPRPRPRPHMEPRP | 0.0155
2 | RRIRQRPPRLPRPRPRPYYTPRP | -0.363
3 | RRIRFRPPRLPRPRPRPKEPPRP | -0.135
4 | RRIRCRPPRLPRPRPRPLDIPRP | -0.422
5 | RRIRYRPPRLPRPRPRPVPVPRP | -0.24
6 | RRIRARPPRLPRPRPRPRDFPRP | 0.0137
7 | RRIRERPPRLPRPRPRPEQWPRP | 0.127
8 | RRIRLRPPRLPRPRPRPEIWPRP | 0.198
9 | RRIRWRPPRLPRPRPRPGTDPRP | 0.216
10 | RRIRMRPPRLPRPRPRPGMTPRP | 1.47
11 | RRIRYRPPRLPRPRPRPPSWPRP | 0.133
12 | RRIRKRPPRLPRPRPRPRELPRP | 0.753
13 | RRIRLRPPRLPRPRPRPLYFPRP | -0.646
14 | RRIRYRPPRLPRPRPRPQIMPRP | -0.705
15 | RRIRCRPPRLPRPRPRPHTVPRP | -0.371
16 | RRIRDRPPRLPRPRPRPLRPPRP | 1.15
17 | RRIRVRPPRLPRPRPRPGTDPRP | -0.117
18 | RRIRMRPPRLPRPRPRPGQCPRP | 0.234
19 | RRIRLRPPRLPRPRPRPPAFPRP | 0.144
20 | RRIRRRPPRLPRPRPRPIQGPRP | -0.00136
21 | RRIRWRPPRLPRPRPRPSVVPRP | -0.00267
22 | RRIRYRPPRLPRPRPRPRCGPRP | -0.0223
23 | RRIRDRPPRLPRPRPRPCVNPRP | 0.0261
24 | RRIRKRPPRLPRPRPRPRDNPRP | 0.15
25 | RRIRMRPPRLPRPRPRPEPIPRP | 0.0584

Row | Sequence | shrunken log2 fold change
26 | RRIRHRPPRLPRPRPRPYMIPRP | -0.025
27 | RRIRMRPPRLPRPRPRPGWWPRP | -0.026
28 | RRIRGRPPRLPRPRPRPGYCPRP | -0.183
29 | RRIRKRPPRLPRPRPRPGGCPRP | 0.809
30 | RRIRHRPPRLPRPRPRPKPAPRP | 0.0168
31 | RRIRWRPPRLPRPRPRPSQCPRP | 0.0963
32 | RRIRRRPPRLPRPRPRPLMYPRP | 0.0279
33 | RRIRCRPPRLPRPRPRPETFPRP | 0.07
34 | RRIRHRPPRLPRPRPRPAHCPRP | 0.115
35 | RRIRNRPPRLPRPRPRPALIPRP | 0.0102
36 | RRIRDRPPRLPRPRPRPLNNPRP | -0.305
37 | RRIRARPPRLPRPRPRPHVQPRP | 0.00547
38 | RRIRERPPRLPRPRPRPPGQPRP | 0.104
39 | RRIRYRPPRLPRPRPRPKPDPRP | 0.0117
40 | RRIRSRPPRLPRPRPRPHVNPRP | -0.259
41 | RRIRGRPPRLPRPRPRPCHSPRP | 0.0222
42 | RRIRMRPPRLPRPRPRPPDMPRP | 1.06
43 | RRIRCRPPRLPRPRPRPPGNPRP | 0.0392
44 | RRIRHRPPRLPRPRPRPALGPRP | -0.0558
45 | RRIRGRPPRLPRPRPRPGAPPRP | 1.29
46 | RRIRGRPPRLPRPRPRPHFDPRP | 0.469
47 | RRIRYRPPRLPRPRPRPILCPRP | -0.0389
48 | RRIRHRPPRLPRPRPRPPFHPRP | -0.119
49 | RRIRMRPPRLPRPRPRPEMWPRP | 2.4
50 | RRIRQRPPRLPRPRPRPGNEPRP | 0.177

Row | Sequence | shrunken log2 fold change
51 | RRIRKRPPRLPRPRPRPTTQPRP | 0.196
52 | RRIRTRPPRLPRPRPRPNHHPRP | -0.687
53 | RRIRFRPPRLPRPRPRPFREPRP | -0.0914
54 | RRIRDRPPRLPRPRPRPKLKPRP | -0.0223
55 | RRIRKRPPRLPRPRPRPLIRPRP | -0.0949
56 | RRIRYRPPRLPRPRPRPFVIPRP | -0.31
57 | RRIRGRPPRLPRPRPRPLNRPRP | 0.33
58 | RRIRCRPPRLPRPRPRPPPSPRP | 1.61
59 | RRIRGRPPRLPRPRPRPNKQPRP | 0.326
60 | RRIRKRPPRLPRPRPRPIASPRP | 0.0246
61 | RRIRWRPPRLPRPRPRPYMCPRP | 0.00232
62 | RRIRKRPPRLPRPRPRPNQEPRP | -0.0316
63 | RRIRTRPPRLPRPRPRPTHGPRP | 0.0213
64 | RRIRSRPPRLPRPRPRPRSEPRP | 0.0656
65 | RRIRTRPPRLPRPRPRPTDAPRP | 0.471
66 | RRIRSRPPRLPRPRPRPAEIPRP | -0.136
67 | RRIRGRPPRLPRPRPRPADKPRP | 0.365
68 | RRIRARPPRLPRPRPRPKDRPRP | 0.145
69 | RRIRCRPPRLPRPRPRPESSPRP | -0.16
70 | RRIRRRPPRLPRPRPRPNHKPRP | -0.226
71 | RRIRDRPPRLPRPRPRPCKCPRP | -0.147
72 | RRIRFRPPRLPRPRPRPPKRPRP | 0.467
73 | RRIRTRPPRLPRPRPRPNAFPRP | -0.0622
74 | RRIRTRPPRLPRPRPRPYHRPRP | 0.0446
75 | RRIRPRPPRLPRPRPRPPPVPRP | 0.744
